Laboratory results published in PMC4617613 (Nature, 2015).

B1: PhnI (natural protein)
chain: MYVAVKGGEKAIDAAHALQESRRRGDTDLPELSVAQIEQQLNLAVDRVMTEGGIADRELAALALKQASGDNVEAIFLLRAYRTTLAKLAVSEPLDTTGMRLERRISAVYKDIPGGQLLGPTYDYTHRLLDFTLLANGEAPTLTTADSEQQPSPHVFSLLARQGLAKFEEDSGAQPDDITRTPPVYPCSRSSRLQQLMRGDEGYLLALAYSTQRGYGRNHPFAGEIRSGYIDVSIVPEELGFAVNVGELLMTECEMVNGFIDPPGEPPHFTRGYGLVFGMSERKAMAMALVDRALQAPEYGEHATGPAQDEEFVLAHADNVEAAGFVSHLKLPHYVDFQAELELLKRLQQEQNHG

What was measured:
PhnI = target: B1; assay: crystal structure
crystal structure = target: the molecule itself; assay: crystal structure

binding result (PhnI) | Binder | stoichiometry N (crystal structure)
binds | PhnG (natural protein) MHADTATRQHWMSVLAHSQPAELAARLNALNITADYEVIRAAETGLVQIQARMGGTGERFFAGDATLTRAAVRLTDGTLGYSWVQGRDKQHAERCALIDALMQQSRHFQNLSETLIAPLDADRMARIAARQAEVNASRVDFFTMVRGDNA | –
binds | PhnJ (natural protein) MANLSGYNFAYLDEQTKRMIRRAILKAVAIPGYQVPFGGREMPMPYGWGTGGIQLTASVIGESDVLKVIDQGADDTTNAVSIRNFFKRVTGVNTTERTDDATVIQTRHRIPETPLTEDQIIIFQVPIPEPLRFIEPRETETRTMHALEEYGVMQVKLYEDIARFGHIATTYAYPVKVNGRYVMDPSPIPKFDNPKMDMMPALQLFGAGREKRIYAVPPFTRVESLDFDDHPFTVQQWDEPCAICGSTHSYLDEVVLDDAGNRMFVCSDTDYCRQQSEAKNQ | –
– | B1 | 2
